Data as given in publication doi:10.64898/2025.12.22.696049 (bioRxiv, 2025).

B1: S. cerevisiae fatty acid synthase subunit FAS2/α (enzyme, UniProt P19097 1-1887, looked up)
chain: MKPEVEQELAHILLTELLAYQFASPVRWIETQDVFLKDFNTERVVEIGPSPTLAGMAQRTLKNKYESYDAALSLHREILCYSKDAKEIYYTPDPSELAAKEEPAKEEAPAPTPAASAPAPAAAAPAPVAAAAPAAAAAEIADEPVKASLLLHVLVAHKLKKSLDSIPMSKTIKDLVGGKSTVQNEILGDLGKEFGTTPEKPEETPLEELAETFQDTFSGALGKQSSSLLSRLISSKMPGGFTITVARKYLQTRWGLPSGRQDGVLLVALSNEPAARLGSEADAKAFLDSMAQKYASIVGVDLSSAASASGAAGAGAAAGAAMIDAGALEEITKDHKVLARQQLQVLARYLKMDLDNGERKFLKEKDTVAELQAQLDYLNAELGEFFVNGVATSFSRKKARTFDSSWNWAKQSLLSLYFEIIHGVLKNVDREVVSEAINIMNRSNDALIKFMEYHISNTDETKGENYQLVKTLGEQLIENCKQVLDVDPVYKDVAKPTGPKTAIDKNGNITYSEEPREKVRKLSQYVQEMALGGPITKESQPTIEEDLTRVYKAISAQADKQDISSSTRVEFEKLYSDLMKFLESSKEIDPSQTTQLAGMDVEDALDKDSTKEVASLPNKSTISKTVSSTIPRETIPFLHLRKKTPAGDWKYDRQLSSLFLDGLEKAAFNGVTFKDKYVLITGAGKGSIGAEVLQGLLQGGAKVVVTTSRFSKQVTDYYQSIYAKYGAKGSTLIVVPFNQGSKQDVEALIEFIYDTEKNGGLGWDLDAIIPFAAIPEQGIELEHIDSKSEFAHRIMLTNILRMMGCVKKQKSARGIETRPAQVILPMSPNHGTFGGDGMYSESKLSLETLFNRWHSESWANQLTVCGAIIGWTRGTGLMSANNIIAEGIEKMGVRTFSQKEMAFNLLGLLTPEVVELCQKSPVMADLNGGLQFVPELKEFTAKLRKELVETSEVRKAVSIETALEHKVVNGNSADAAYAQVEIQPRANIQLDFPELKPYKQVKQIAPAELEGLLDLERVIVVTGFAEVGPWGSARTRWEMEAFGEFSLEGCVEMAWIMGFISYHNGNLKGRPYTGWVDSKTKEPVDDKDVKAKYETSILEHSGIRLIEPELFNGYNPEKKEMIQEVIVEEDLEPFEASKETAEQFKHQHGDKVDIFEIPETGEYSVKLLKGATLYIPKALRFDRLVAGQIPTGWNAKTYGISDDIISQVDPITLFVLVSVVEAFIASGITDPYEMYKYVHVSEVGNCSGSGMGGVSALRGMFKDRFKDEPVQNDILQESFINTMSAWVNMLLISSSGPIKTPVGACATSVESVDIGVETILSGKARICIVGGYDDFQEEGSFEFGNMKATSNTLEEFEHGRTPAEMSRPATTTRNGFMEAQGAGIQIIMQADLALKMGVPIYGIVAMAATATDKIGRSVPAPGKGILTTAREHHSSVKYASPNLNMKYRKRQLVTREAQIKDWVENELEALKLEAEEIPSEDQNEFLLERTREIHNEAESQLRAAQQQWGNDFYKRDPRIAPLRGALATYGLTIDDLGVASFHGTSTKANDKNESATINEMMKHLGRSEGNPVIGVFQKFLTGHPKGAAGAWMMNGALQILNSGIIPGNRNADNVDKILEQFEYVLYPSKTLKTDGVRAVSITSFGFGQKGGQAIVVHPDYLYGAITEDRYNEYVAKVSAREKSAYKFFHNGMIYNKLFVSKEHAPYTDELEEDVYLDPLARVSKDKKSGSLTFNSKNIQSKDSYINANTIETAKMIENMTKEKVSNGGVGVDVELITSINVENDTFIERNFTPQEIEYCSAQPSVQSSFAGTWSAKEAVFKSLGVKSLGGGAALKDIEIVRVNKNAPAVELHGNAKKAAEEAGVTDVKVSISHDDLQAVAVAVSTKK
B2: S. pombe fatty acid synthase subunit FAS2/α (enzyme, S. pombe (endogenous in K972 cells), UniProt Q10289 1-1842, looked up)
chain: MRPEVEQELAHTLLLELLAYQFASPVRWIETQDVILSPPVSAERIVEIGPSPTLAGMAKRTLKLKYENMDAALSINREVLCYSKDAREIYYNFEDEVADEPAEAPASTSSTPKVETAAAAAPAATPAPAPAQTSAPAAALPDEPPKALEVLHTLVAQKLKKSIEEVSPQKSIKDLVGGKSTLQNEILGDLQKEFGATPEKPEEVPLDELGAIMQSSFNGSLGKQSSSLISRMISSKMPGGFNNSAVRGYLGNRYGLGPGRLESVLLLALTMEPASRLGSEADAKAWLDSVAQKYAARNGVTLSSPTAEGGSSSGSAAVIDEETFKKLTKNNTMLVTQQLELFARYLNKDLRAGQKAQVAEKVISDTLRAQLDLWNEEHGEFYASGIAPIFSPLKARVYDSDWNWARQDALKMFFDIIFGRLKHVDTEIVARCISVMNRSNPTLLEFMQYHIDHCPAEKGETYQLAKTLGQQLIDNCKSVIDAPPVFKNVNHPTAPSTTIDERGNLNYEEIPRPGVRKLTHYVTEMAKGGKLPTESKNKAKVQNDLARIYRIIKSQNKMSRSSKLQIKQLYGQVLHALSLPLPSSNDEQTPVKETIPFLHIRKKSVDGNWEFNKSLTGTYLDVLESGAKNGITYQDKYALVTGAGAGSIGAQIVEGLLAGGAKVVVTTSRFSRKVTEFYQSLYTRHGSRGSCLIVVPFNQGSKTDVEALIDYIYDEKKGLGWNLDYIVPFAAIPENGREIDGIDSRSEFAHRIMLTNILRLLGAVKSQKASRGMDTRPAQVILPLSPNHGTFGNDGLYSESKLGLETLFNRWYSESWANYLTICGAVIGWTRGTGLMAPNNIVSQGIEKYGVRTFSQSEMAFNILGLMSQKVVDLCQSEPIYANLNGGLELLPDLKDLSTRLRTELLETAEIRRAVAAETAFDHSITNGPDSEAVFQKTAIQPRANLKFNFPKLKPYEALSHLSDLRGMVDLEKVPVVTGFSEVGPWGNSRTRWDMECYGEFSLEGCVEIAWIMGLIKNFNGKGKDGKPYSGWVDTKTGEPVDDKDVKAKYEKYILEHCGIRIIEAELFHGYNPEKKELLQEVVIDHDLEPFEASKEAAHEFKLRHGDQVEIFEIPDSTEWSVRFKRGTSMLIPKALRFDRFVAGQIPLGWDPKRYGIPDDIISQVDPTTLYVLVSTVEALVASGITDPYECYKYIHVSELGNTVGSGIGGMSALRGMYKDRWTDKPVQKDILQESFINTANAWINMLLLSASGPIKTPVGACATAVESVDAAVDLITSGKARICISGGYDDFSEEGSYEFANMGATSNAAKETERGRTPQEMSRPATSTRDGFMESQGAGVQIIMQAKLAIEMGVPIHGIVGYVSTAMDKQGRSVPAPGQGILTGAREIATKTPLPIVDLKFRSRQLQRRRSQIGEWAEREYLYLEEELDAMKVQNPDLDLEAYRIERINVIKEEVVRQEKEALNTFGNEFWKRDPTIAPIRGALAVWGLTIDDLGVASFHGTSTKANEKNECDVIDSQLTHLGRSKGNAVYGVFQKYLTGHSKGGAGAWMLNGALQILRSGFVPGNRNADNIDEYLARFDRVMFPSEGIQTDGIKAASVTAFGFGQVGGQVIVIHPDYIYGVIDEATYNAYKAKTAARYKASYRYTHDALVYNNLVRAKDSPPYTKEQEKAVYLNPLARASKSKAGTWTFPATLPAESDISKTNETTRTLQSLTTSLTNSNENVGVDVELVSAISIDNETFIERNFTDTERKYCFAAPNPQASFAGRWSAKEAVFKSLGISGKGAAAPLKDIEIISSESGAPEVVLHGEAAKAATTAGVKSVSVSISHDDNQSVSVALAHK

How the values were obtained:
Experiment in all cases: cryo-EM structure
[1] = target: S. cerevisiae fatty acid synthase subunit FAS1/ß (S. cerevisiae (endogenous in W303 or BY4742 cells)) (UniProt P07149)
[2] = target: S. pombe fatty acid synthase subunit FAS1/ß (S. pombe (endogenous in K972 cells)) (UniProt Q9UUG0)
[3] = target: the molecule itself

Molecule	stoichiometry N [3]	also measured
S. cerevisiae fatty acid synthase subunit FAS1/ß, P07149 1-2051	–	stoichiometry N [1]: 3
S. pombe fatty acid synthase subunit FAS1/ß, Q9UUG0 1-2073	–	stoichiometry N [2]: 3
B1	6	–
B2	6	–
